Where two headings read alike, the source gives them in different places.
T1: human MerTK expressed on cells (human, UniProt Q12866 21-999)
T1 construct: whole, on cells; also called CHO-K1-hMerTK; CHO-K1-MerTK
T1 sequence (looked up): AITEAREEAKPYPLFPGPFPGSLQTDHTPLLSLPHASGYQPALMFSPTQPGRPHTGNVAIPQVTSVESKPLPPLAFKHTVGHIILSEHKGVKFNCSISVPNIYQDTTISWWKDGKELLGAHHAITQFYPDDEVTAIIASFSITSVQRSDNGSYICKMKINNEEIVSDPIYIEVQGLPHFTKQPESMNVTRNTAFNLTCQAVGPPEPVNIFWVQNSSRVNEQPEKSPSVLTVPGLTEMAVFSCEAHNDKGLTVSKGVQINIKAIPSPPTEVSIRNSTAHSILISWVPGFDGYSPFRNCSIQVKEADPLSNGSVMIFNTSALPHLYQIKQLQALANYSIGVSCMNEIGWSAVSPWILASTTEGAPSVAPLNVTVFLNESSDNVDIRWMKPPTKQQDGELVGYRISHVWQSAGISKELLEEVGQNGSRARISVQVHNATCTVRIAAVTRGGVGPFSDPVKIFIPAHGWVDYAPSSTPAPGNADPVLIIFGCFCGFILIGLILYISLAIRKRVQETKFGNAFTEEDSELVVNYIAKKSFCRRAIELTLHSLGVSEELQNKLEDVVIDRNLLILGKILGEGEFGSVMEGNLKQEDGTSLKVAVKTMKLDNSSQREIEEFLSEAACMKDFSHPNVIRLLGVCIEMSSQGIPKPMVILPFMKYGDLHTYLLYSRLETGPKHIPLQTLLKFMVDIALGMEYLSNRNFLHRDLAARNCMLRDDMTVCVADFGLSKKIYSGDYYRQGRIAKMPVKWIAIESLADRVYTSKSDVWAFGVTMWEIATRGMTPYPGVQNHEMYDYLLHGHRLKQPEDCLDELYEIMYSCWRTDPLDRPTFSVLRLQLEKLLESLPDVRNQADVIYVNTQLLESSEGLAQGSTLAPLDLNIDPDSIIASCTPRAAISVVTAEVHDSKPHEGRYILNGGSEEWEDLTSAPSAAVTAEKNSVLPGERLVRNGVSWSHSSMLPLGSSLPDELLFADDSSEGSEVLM

T2: human MerTK-his protein (human, UniProt Q12866 21-505)
T2 construct: extracellular domain; also called hMerTK-His; human MerTK protein
T2 sequence (looked up): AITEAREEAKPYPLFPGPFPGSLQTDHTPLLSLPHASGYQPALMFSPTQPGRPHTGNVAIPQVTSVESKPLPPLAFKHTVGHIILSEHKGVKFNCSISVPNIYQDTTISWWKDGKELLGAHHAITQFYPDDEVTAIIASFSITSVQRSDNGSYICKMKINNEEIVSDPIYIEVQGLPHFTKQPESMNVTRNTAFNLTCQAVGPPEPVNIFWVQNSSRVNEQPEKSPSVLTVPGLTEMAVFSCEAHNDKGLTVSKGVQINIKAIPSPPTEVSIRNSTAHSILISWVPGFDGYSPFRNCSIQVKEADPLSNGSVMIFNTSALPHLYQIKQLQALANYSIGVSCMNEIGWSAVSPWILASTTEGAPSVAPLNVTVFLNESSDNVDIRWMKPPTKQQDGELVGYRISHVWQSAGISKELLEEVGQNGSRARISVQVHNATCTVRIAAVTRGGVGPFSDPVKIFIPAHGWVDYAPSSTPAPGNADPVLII


Experiments:
[1] = target: T1, human MerTK expressed on cells; assay: FACS on CHO-K1 cells overexpressing human MerTK, MFI (AF488)
human MerTK-his protein [2] = target: T2, human MerTK-his protein; assay: SPR Biacore 8K, antibody captured on Protein A chip, 50 nM antigen
Protocol: To explore whether the humanized antibodies could maintain their binding kinetics, affinity ranking were performed with Biacore™. The antibodies were captured with a Protein A chips. Human MerTK-his protein at 50 nM was injected over captured antibodies for 180 s at a flow rate of 30 μL/min. The antigen was allowed to dissociate for 600 s. The experiment was carried out on a Biacore™ 8K. Data analysis was carried out using Biacore™ 8K evaluation software.

human MerTK-his protein [3] = target: T2, human MerTK-his protein; assay: ELISA, plate coated with human MerTK-his, OD 450nm
Protocol: (§1) To evaluate the binding activity, the chimeric mAbs were subjected to ELISA test. Briefly, 96-well plates were coated with human or cyno MerTK-his protein at 2 μg/mL in PBS, 100 μL/well at 4° C. overnight, then blocked with 150 μL/well of 1% BSA. Five-fold dilutions of MerTK antibodies starting from 20 nM were added to each well and incubated for 1 hour at room temperature. The plates were washed with PBS/Tween-20 and then incubated with goat anti-human IgG Fe antibody conjugated with Horse Radish Peroxidase (HRP) for 30 minutes (mins) at room temperature. After washing, the plates were developed with TMB substrate and subsequent stop solution was added to complete the reaction. The signal from each well was read by spectrophotometer at OD 450 nm.
(§2) To evaluate the antigen binding activity, the humanized antibodies were subjected to ELISA test as described before.

human MerTK-his protein [4] = target: T2, human MerTK-his protein; assay: ELISA, plate coated with human MerTK-his, OD 450nm; remark: listed apart in the source
Protocol: as §1, §2

[5] = target: T1, human MerTK expressed on cells; assay: FACS on CHO-K1 cells overexpressing human MerTK, MFI (AF488); remark: listed apart in the source

EC50 [1] [nM] | Kd (human MerTK-his protein [2]) [nM] | koff (human MerTK-his protein [2]) [s⁻¹] | kon (human MerTK-his protein [2]) [M⁻¹ s⁻¹] | EC50 (human MerTK-his protein [3]) [nM] | EC50 (human MerTK-his protein [4]) [nM] | EC50 [5] [nM] | Binder
0.85 | 2.19 | 0.000475 | 217000 | 0.094 | – | – | 254B4D9Hu-1 (antibody, V domains shown) VH: QVQLVQSGSELKKPGASVKVSCKASGYTFTAYGMSWVKQAPGQGLQWMGWINTYSGVPTYTDDFKGRFVFSLDTSVSTAFLQISSLKAEDTAVYFCARRAAVVAKYWYFDVWGQGTTVTVSS VL: DIQMTQSPSSLSASVGDRVTITCKSSQDINKRISWYQQKPGKAPKLLIHSTSSLQPGVPSRFSGSGSGRDFTFTISSLQPEDIATYFCLQYDNLLTFGQGTKLEIK
1.1 | 10.9 | 0.000592 | 54100 | 0.064 | – | – | 254B4D9Hu-2 (antibody, V domains shown) VH: QVQLVQSGHEVKQPGASVKVSCKASGYSFTAYGMSWVKQAPGQGLQWMGWINTYSGVPTYTDDFKGRFVFSLDTSASTAFLQISSLKAEDMAMYFCARRAAVVAKYWYFDVWGQGTTVTVSS VL: DIQMTQSPSSLSASVGDRVTITCKSSQDINKRISWYQQKPGKAPKLLIHSTSSLQPGVPSRFSGSGSGRDFTFTISSLQPEDIATYFCLQYDNLLTFGQGTKLEIK
– | 1.64 | 0.00031 | 189000 | – | 0.052 | 0.19 | 265F11B5Hu-12 (antibody, V domains shown) VH: QVQLVQSGAEVKKPGASVKVSCKASGYTFTTYDINWVRQAPGQGLEWIGWIYPRDGYTKYNEKFKGRATLAVDTSTSTAYMELRSLRSDDTAVYFCTRGYYDNLYYFDYWGQGTTVTVSS VL: EIVLTQSPDFQSVTPKEKVTITCSASSIISSNYFHWYQQKPDQSPKLLIYRTSNLASGVPSRFSGSGSGTDYTLTINSLEAEDAATYYCQQGRSVPLTFGQGTKLEIK

Reference: patent US20260028422A1 (CONCEPT TO MEDICINE BIOTECH, published 2026)
